One block for each binder: values may come before it. Where no end group is shown, it is not given here.
Molecular target: purified recombinant WDR5 (used for FPA) (UniProt P61964 1-334)
Test: fluorescence polarisation

Kd: > 500 µM
B1: MbIIIb mutant peptide V264G (peptide)
chain: DEEEIDGVSV

Kd: 9.3 µM
B2: FITC-labeled MbIIIb peptide (residues 258–267 of human c-MYC) (peptide)
chain: DEEEIDVVSV
modifications: also: FITC label (position not given here)

Kd: > 500 µM
B3: MbIIIb mutant peptide WBM (I262/V264/V265 to glutamic acid) (peptide)
chain: DEEEEDEESV
